Results as given in US20220073608A1.

Assays:
[1] = molecular target: T1, human SEMA4D, full length, on CHO-K1 cells (CHO-K1 hSEMA4D) (human) (UniProt Q92854); assay: FACS, CHO-K1 hSEMA4D cells; Ab 2.67 nM
T1 sequence (looked up): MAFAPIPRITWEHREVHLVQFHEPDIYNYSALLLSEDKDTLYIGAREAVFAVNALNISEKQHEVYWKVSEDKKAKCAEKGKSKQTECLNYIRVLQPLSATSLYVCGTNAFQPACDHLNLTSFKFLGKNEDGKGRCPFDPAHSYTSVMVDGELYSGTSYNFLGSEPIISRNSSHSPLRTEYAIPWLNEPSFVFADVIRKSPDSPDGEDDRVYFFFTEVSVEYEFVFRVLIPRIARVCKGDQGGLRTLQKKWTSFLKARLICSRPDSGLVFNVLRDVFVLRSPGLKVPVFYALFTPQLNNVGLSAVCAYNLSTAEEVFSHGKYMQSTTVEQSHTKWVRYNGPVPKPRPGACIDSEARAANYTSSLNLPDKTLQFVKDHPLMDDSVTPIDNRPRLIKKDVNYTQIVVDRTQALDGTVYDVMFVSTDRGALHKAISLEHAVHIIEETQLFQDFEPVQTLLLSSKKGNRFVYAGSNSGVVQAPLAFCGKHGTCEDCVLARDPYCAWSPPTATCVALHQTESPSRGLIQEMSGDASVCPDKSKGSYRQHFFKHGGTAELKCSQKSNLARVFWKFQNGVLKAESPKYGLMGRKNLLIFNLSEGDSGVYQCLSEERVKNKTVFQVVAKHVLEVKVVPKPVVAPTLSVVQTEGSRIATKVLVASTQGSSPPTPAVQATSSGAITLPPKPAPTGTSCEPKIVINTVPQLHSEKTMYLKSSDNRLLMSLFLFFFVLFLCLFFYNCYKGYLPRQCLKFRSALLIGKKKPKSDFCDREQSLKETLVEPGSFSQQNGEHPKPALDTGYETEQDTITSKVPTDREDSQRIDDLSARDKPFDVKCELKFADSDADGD

[2] = molecular target: mouse SEMA4D, full length, on CHO-K1 cells (CHO-K1 mSEMA4D) (mouse) (UniProt O09126); assay: FACS, CHO-K1 mSEMA4D cells; Ab 13.3 nM
[3] = molecular target: mouse SEMA4D, full length, on CHO-K1 cells (CHO-K1 mSEMA4D) (mouse) (UniProt O09126); assay: FACS, CHO-K1 mSEMA4D cells; Ab 2.67 nM
[4] = molecular target: T1, human SEMA4D, full length, on CHO-K1 cells (CHO-K1 hSEMA4D) (human); assay: FACS, CHO-K1 hSEMA4D cells; Ab 0.107 nM
[5] = molecular target: T1, human SEMA4D, full length, on CHO-K1 cells (CHO-K1 hSEMA4D) (human); assay: FACS, CHO-K1 hSEMA4D cells; Ab 0.534 nM
[6] = molecular target: monkey SEMA4D, full length, on CHO-K1 cells (CHO-K1 cSEMA4D) (monkey); assay: FACS, CHO-K1 cSEMA4D cells; Ab 0.107 nM
[7] = molecular target: monkey SEMA4D, full length, on CHO-K1 cells (CHO-K1 cSEMA4D) (monkey); assay: FACS, CHO-K1 cSEMA4D cells; Ab 0.534 nM
[8] = molecular target: monkey SEMA4D, full length, on CHO-K1 cells (CHO-K1 cSEMA4D) (monkey); assay: FACS, CHO-K1 cSEMA4D cells; Ab 0.0213 nM
[9] = molecular target: T1, human SEMA4D, full length, on CHO-K1 cells (CHO-K1 hSEMA4D) (human); assay: FACS, CHO-K1 hSEMA4D cells; Ab 0.00427 nM
[10] = molecular target: mouse SEMA4D, full length, on CHO-K1 cells (CHO-K1 mSEMA4D) (mouse) (UniProt O09126); assay: FACS, CHO-K1 mSEMA4D cells; Ab 0.00427 nM
[11] = molecular target: monkey SEMA4D, full length, on CHO-K1 cells (CHO-K1 cSEMA4D) (monkey); assay: FACS, CHO-K1 cSEMA4D cells; Ab 0.000853 nM
[12] = molecular target: hSEMA4D ECD-His (His-tagged human SEMA4D protein extracellular domain, Met22-Arg734) (human) (UniProt Q92854); assay: ELISA, coated hSEMA4D ECD-His; Ab 0.00085 nM
[13] = molecular target: T2, biotinylated hSEMA4D ECD-His (human) (UniProt Q92854); assay: FACS, blocking of biotinylated hSEMA4D ECD-His binding to 293F hPlexin B1 cells; Ab 13.3 nM
T2 sequence (chain, biotinylated with Biotin-X-X-NHS at a molar ratio of 8,1; sites not stated): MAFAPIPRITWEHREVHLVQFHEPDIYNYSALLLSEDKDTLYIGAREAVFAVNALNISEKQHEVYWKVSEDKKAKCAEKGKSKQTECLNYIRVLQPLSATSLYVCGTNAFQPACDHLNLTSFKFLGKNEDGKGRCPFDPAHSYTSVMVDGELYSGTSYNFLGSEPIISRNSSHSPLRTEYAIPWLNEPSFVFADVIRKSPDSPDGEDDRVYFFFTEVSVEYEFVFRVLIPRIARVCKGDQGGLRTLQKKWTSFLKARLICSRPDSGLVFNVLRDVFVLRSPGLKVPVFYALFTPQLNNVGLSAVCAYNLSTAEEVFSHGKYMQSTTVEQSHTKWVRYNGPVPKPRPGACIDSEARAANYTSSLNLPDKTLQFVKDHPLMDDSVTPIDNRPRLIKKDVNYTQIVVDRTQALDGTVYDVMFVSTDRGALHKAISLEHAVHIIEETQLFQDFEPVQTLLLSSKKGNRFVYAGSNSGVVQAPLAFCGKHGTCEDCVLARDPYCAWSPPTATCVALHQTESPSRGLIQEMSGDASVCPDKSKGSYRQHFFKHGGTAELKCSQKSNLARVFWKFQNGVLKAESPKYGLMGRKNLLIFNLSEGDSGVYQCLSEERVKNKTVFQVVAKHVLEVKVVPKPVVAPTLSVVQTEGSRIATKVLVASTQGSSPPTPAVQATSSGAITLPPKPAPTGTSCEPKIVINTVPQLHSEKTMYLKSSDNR

[14] = molecular target: T2, biotinylated hSEMA4D ECD-His (human); assay: FACS, blocking of biotinylated hSEMA4D ECD-His binding to 293F hPlexin B1 cells; Ab 2.67 nM
[15] = molecular target: T2, biotinylated hSEMA4D ECD-His (human); assay: FACS, blocking of biotinylated hSEMA4D ECD-His binding to 293F hPlexin B1 cells; Ab 66.7 nM

MFI [1]	MFI [2]	MFI [3]	MFI [4]	MFI [5]	MFI [6]	MFI [7]	MFI [8]	MFI [9]	MFI [10]	MFI [11]	OD450 nm [12]	MFI (residual ligand binding) [13]	MFI (residual ligand binding) [14]	MFI (residual ligand binding) [15]	Substance
35.9	23.8	23.9	38	37.4	31.6	32.1	31.6	37.4	23.7	31.6	0.0781	331	338	321	Human IgG control (antibody)
35.6	30.3	30.4	36.1	36.5	25.4	24.9	23.1	35.5	30.1	22.9	–	474	470	471	Mouse IgG control (antibody)
